Laboratory results: the Immune Epitope Database (IEDB)
Each block holds one sequence with its values, some of them ahead of it.

Experiments:
HLA-B*44:02 = assay: IEDB peptide-MHC binding, purified MHC/competitive/radioactivity; filed as Kd, often an IC50 or EC50 that approximates it; ≥ and ≤ were set here for values at or beyond the usual limits of such assays
HLA-A*01:01 [1] = assay: as above
HLA-A*29:02 = assay: as above
HLA-A*30:02 = assay: as above
HLA-A*23:01 = assay: as above
HLA-A*26:01 [2] = assay: as above
HLA-A*24:02 = assay: as above
HLA-A*32:01 = assay: as above
HLA-A*11:01 [3] = assay: as above
HLA-A*33:01 = assay: as above
HLA-A*68:01 = assay: as above
HLA-A*03:01 [4] = assay: as above
HLA-A*31:01 = assay: as above
HLA-A*26:01 [5] = assay: IEDB peptide-MHC binding, purified MHC/direct/fluorescence; filed as Kd, often an IC50 or EC50 that approximates it; ≥ and ≤ were set here for values at or beyond the usual limits of such assays
HLA-A*11:01 [6] = assay: as above; settings: source organism: SARS-CoV1
HLA-B*15:01 = assay: as above; settings: source organism: SARS-CoV1
HLA-A*01:01 [7] = assay: as above; settings: source organism: SARS-CoV1
HLA-B*58:01 = assay: as above; settings: source organism: SARS-CoV1
HLA-A*03:01 [8] = assay: as above; settings: source organism: SARS-CoV1
[9] = source organism: Dengue virus 4 Philippines/H241/1956
[10] = source organism: SARS coronavirus Tor2
[11] = source organism: Vaccinia virus WR
[12] = source organism: Dengue virus 3 Martinique/1243/1999
[13] = source organism: Mammarenavirus machupoense
[14] = source organism: Mammarenavirus lassaense
[15] = source organism: Mammarenavirus whitewaterense
[16] = source organism: Triticum aestivum

Sequence: AETWMSSEG
- Kd (HLA-B*44:02; [9]): 425 nM

Sequence: AFNCTFEYI
- Kd (HLA-A*01:01 [1]; [10]): 1400 nM
- Kd (HLA-A*29:02; [10]): 322 nM
- Kd (HLA-A*30:02; [10]): 1400 nM
- Kd (HLA-A*23:01; [10]): 9360 nM
- Kd (HLA-A*26:01 [2]; [10]): 86.1 nM
- Kd (HLA-A*24:02; [10]): ≥ 70300 nM

Sequence: AIMFFPRTI
- Kd (HLA-A*32:01; [11]): 1.12 nM

Sequence: AMFTAALNI
- Kd (HLA-A*32:01; [11]): 123 nM

Sequence: ASISSVLTI
- Kd (HLA-A*32:01; [11]): 13.3 nM

Sequence: AWMVHRQWFF
- Kd (HLA-B*44:02; [12]): 2210 nM
- Kd (HLA-A*23:01; [12]): 9.48 nM
- Kd (HLA-A*24:02; [12]): 4.7 nM

Sequence: AYLRKHFSM
- Kd (HLA-A*01:01 [1]; [10]): ≥ 78100 nM
- Kd (HLA-A*29:02; [10]): 6290 nM
- Kd (HLA-A*30:02; [10]): ≥ 75000 nM
- Kd (HLA-A*23:01; [10]): ≥ 24400 nM
- Kd (HLA-A*26:01 [2]; [10]): ≥ 77900 nM
- Kd (HLA-A*24:02; [10]): ≥ 83300 nM

Sequence: DFAGKTVWF
- Kd (HLA-A*23:01; [12]): 6480 nM
- Kd (HLA-A*24:02; [12]): 3030 nM

Sequence: DLIKKSDAKR
- Kd (HLA-A*11:01 [3]; [11]): 12500 nM
- Kd (HLA-A*33:01; [11]): 8.97 nM
- Kd (HLA-A*68:01; [11]): 13.9 nM
- Kd (HLA-A*29:02; [11]): 28.7 nM
- Kd (HLA-A*03:01 [4]; [11]): 6370 nM
- Kd (HLA-A*31:01; [11]): 3.96 nM

Sequence: DVFCDSKLM
- Kd (HLA-A*26:01 [2]; source organism: Dengue virus 2 Jamaica/1409/1983): 1880 nM

Sequence: EMICFHEFL
- Kd (HLA-A*29:02; [13]): 11300 nM
- Kd (HLA-A*23:01; [13]): 6960 nM
- Kd (HLA-A*24:02; [13]): ≥ 40900 nM

Sequence: EPILEYVVY
- Kd (HLA-A*26:01 [5]; source organism: Francisella tularensis subsp. tularensis FSC033): 827 nM

Sequence: ESDSKPQKV
- Kd (HLA-A*01:01 [1]; [14]): 180 nM
- Kd (HLA-A*29:02; [14]): ≥ 78900 nM
- Kd (HLA-A*30:02; [14]): ≥ 76900 nM
- Kd (HLA-A*23:01; [14]): ≥ 77700 nM
- Kd (HLA-A*26:01 [2]; [14]): ≥ 77900 nM
- Kd (HLA-A*24:02; [14]): ≥ 77500 nM

Sequence: ETAEAMHAS
- Kd (HLA-A*26:01 [5]; source organism: Mycobacterium tuberculosis): 71 nM

Sequence: EVTAKWLWGF
- Kd (HLA-A*26:01 [2]; source organism: Dengue virus 1 Brazil/97-11/1997): 80.7 nM

Sequence: FAGKTVWFVP
- Kd (HLA-A*32:01; [12]): ≥ 26600 nM

Sequence: FTILCLVPAY
- Kd (HLA-A*01:01 [1]; [10]): 456 nM
- Kd (HLA-A*29:02; [10]): 15.5 nM
- Kd (HLA-A*30:02; [10]): 329 nM
- Kd (HLA-A*23:01; [10]): ≥ 70000 nM
- Kd (HLA-A*26:01 [2]; [10]): 10.6 nM
- Kd (HLA-A*24:02; [10]): ≥ 70300 nM

Sequence: FYVSSIFLHL
- Kd (HLA-A*29:02; [15]): 10.9 nM
- Kd (HLA-A*23:01; [15]): 8.55 nM
- Kd (HLA-A*24:02; [15]): 114 nM

Sequence: GPDDQIGYY
- Kd (HLA-A*01:01 [1]; [10]): ≥ 79400 nM
- Kd (HLA-A*29:02; [10]): 6490 nM
- Kd (HLA-A*30:02; [10]): 2450 nM
- Kd (HLA-A*23:01; [10]): ≥ 77800 nM
- Kd (HLA-A*26:01 [2]; [10]): 11000 nM
- Kd (HLA-A*24:02; [10]): ≥ 77600 nM

Sequence: GTHYQNHGF
- Kd (HLA-A*32:01; [11]): 6.02 nM

Sequence: GYKNVRITF
- Kd (HLA-A*01:01 [1]; [10]): ≥ 78100 nM
- Kd (HLA-A*29:02; [10]): 3700 nM
- Kd (HLA-A*30:02; [10]): ≥ 23100 nM
- Kd (HLA-A*23:01; [10]): 11000 nM
- Kd (HLA-A*26:01 [2]; [10]): ≥ 54100 nM
- Kd (HLA-A*24:02; [10]): 6990 nM

Sequence: HWVEITALI
- Kd (HLA-A*23:01; [9]): 100 nM
- Kd (HLA-A*24:02; [9]): 317 nM

Sequence: KAADVTWEEE
- Kd (HLA-A*32:01; source organism: Dengue virus 3 Singapore/8120/1995): ≥ 33100 nM

Sequence: KMFESTYRG
- Kd (HLA-A*32:01; source organism: Dengue virus 4 Dominica/814669/1981): 907 nM

Sequence: KSLKKVYTF
- Kd (HLA-A*32:01; [11]): 0.485 nM

- Kd (HLA-A*11:01 [3]; [16]): ≥ 22100 nM
- Kd (HLA-A*33:01; [16]): ≥ 70000 nM
- Kd (HLA-A*01:01 [1]; [16]): 678 nM
- Kd (HLA-A*68:01; [16]): ≥ 70200 nM
- Kd (HLA-A*29:02; [16]): 12000 nM
- Kd (HLA-A*30:02; [16]): 260 nM
- Kd (HLA-A*23:01; [16]): ≥ 39000 nM
- Kd (HLA-A*03:01 [4]; [16]): ≥ 21700 nM
- Kd (HLA-A*26:01 [2]; [16]): ≥ 102000 nM
- Kd (HLA-A*31:01; [16]): ≥ 47200 nM
- Kd (HLA-A*24:02; [16]): ≥ 70300 nM
Sequence: KSQVLQQSTY

Sequence: LIPLWMAGL
- Kd (HLA-A*26:01 [5]; source organism: Vibrio vulnificus CMCP6): 8980 nM

Sequence: LLMYNLLTI
- Kd (HLA-A*32:01; source organism: Vaccinia virus Copenhagen): 71.7 nM

Sequence: LQSLENVAY
- Kd (HLA-A*01:01 [1]; [10]): ≥ 42300 nM
- Kd (HLA-A*29:02; [10]): 6670 nM
- Kd (HLA-A*30:02; [10]): 617 nM
- Kd (HLA-A*23:01; [10]): ≥ 77800 nM
- Kd (HLA-A*26:01 [2]; [10]): ≥ 81500 nM
- Kd (HLA-A*24:02; [10]): ≥ 77600 nM
- Kd (HLA-A*11:01 [6]): ≥ 44700 nM
- Kd (HLA-B*15:01): 161 nM

Sequence: LSDDAVVCY
- Kd (HLA-A*29:02; [10]): 1000 nM
- Kd (HLA-A*30:02; [10]): 1450 nM
- Kd (HLA-A*23:01; [10]): ≥ 77800 nM
- Kd (HLA-A*26:01 [2]; [10]): ≥ 80300 nM
- Kd (HLA-A*24:02; [10]): ≥ 77600 nM
- Kd (HLA-A*11:01 [6]): ≥ 22300 nM
- Kd (HLA-A*01:01 [7]): 17.5 nM
- Kd (HLA-B*58:01): 300 nM
- Kd (HLA-A*03:01 [8]): 9260 nM
- Kd (HLA-B*15:01): 474 nM

Sequence: LSFKELLVY
- Kd (HLA-A*01:01 [1]; [10]): 85.3 nM
- Kd (HLA-A*29:02; [10]): 1.55 nM
- Kd (HLA-A*30:02; [10]): 50.8 nM
- Kd (HLA-A*23:01; [10]): 2490 nM
- Kd (HLA-A*26:01 [2]; [10]): 10900 nM
- Kd (HLA-A*24:02; [10]): 9230 nM
